Numbering of substitutions follows the chain as printed. Where “and” joins values, the source holds several entries; their conditions need not be identical. Equal values may be shown once. Values belong to the molecule of their own block, whether it stands above or below them. Ends that are not written are not given here.
Assays:
[1] = biological target: T1, HD-PTPBro1 (Bro1 domain of HD-PTP, 1-361) (Homo sapiens, UniProt Q9H3S7); assay: Biosensor (SPR) binding of peptides to HD-PTPBro1; settings: 10 mM HEPES pH 7.4, 150 mM NaCl, 0.05% Tween 20, 25°C; for Binding to HD-PTPBro1 (sensogram): compared with wild-type endofin peptide, result in words
T1 construct: HD-PTPBro1 (1-361) was cloned in a pNIC28-Bsa4 vector; made in house; host or cells: E. coli BL21 (DE3)
T1 sequence (Q9H3S7 1-361): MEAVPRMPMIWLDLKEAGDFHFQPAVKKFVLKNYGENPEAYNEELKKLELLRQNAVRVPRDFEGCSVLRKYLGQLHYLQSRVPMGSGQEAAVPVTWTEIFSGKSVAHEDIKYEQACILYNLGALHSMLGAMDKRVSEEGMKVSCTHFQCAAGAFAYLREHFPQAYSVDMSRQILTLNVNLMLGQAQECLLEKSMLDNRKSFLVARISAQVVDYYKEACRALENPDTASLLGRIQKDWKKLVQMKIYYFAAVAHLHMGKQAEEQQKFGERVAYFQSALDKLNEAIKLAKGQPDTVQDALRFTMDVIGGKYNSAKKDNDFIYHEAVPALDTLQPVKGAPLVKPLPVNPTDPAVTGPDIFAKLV
Experimental: (§1) Biosensor based binding experiments were performed using a ProteOn XPR36 surface Plasmon resonance instrument (Bio-Rad Laboratories). The ProteOn XPR36 is multiplex system that can be used to provide simultaneous flow of up to six analyte channels (A1-A6) over up to six ligand channels (L1-L6). The running buffer used was 10 mM HEPES pH 7.4, 150 mM NaCl, 0.05% Tween 20. Immobilization of His6-tagged HD-PTP and a negative control protein, His6-tagged MptpB, was performed on a HTE chip (Bio-Rad Laboratories) in the vertical orientation. Proteins were diluted in running buffer to a final concentration of 50-100 μg/ml and 150 μl was injected at a flow rate of 30 μl/min The immobilization level of proteins was typically 5000-8000 response unit (RU). All experiments were performed at 25°C. Synthetic peptides spanning the binding regions of CHMP4 A, B and C, and SARA and endofin, were obtained from Generon Ltd, UK. For equilibrium binding measurements these peptides were used as analytes. Peptide stocks were prepared in running buffer just prior the binding experiments. Peptides were injected (50 μl at 100 μl/min) in the horizontal orientation using five serially diluted peptide concentrations (channels A1-A5) alongside a buffer control (channel A6). Peptide concentrations were chosen to give a suitable spread of responses below and above half-maximal binding.
(§2) All the binding sensograms were collected, processed and analyzed using the integrated ProteOn Manager software (Bio-Rad Laboratories), using the equilibrium binding mode: Response = [A] ^∗ Rmax/([A] + KD), where [A] is the analyte concentration and Rmax is the maximum response. At least 3 independent replicates were performed for each experiment. Values in the text and figure legends indicate mean +/- SD (standard deviation).

HD-PTPBro1-CC (1-714) = biological target: T2, HD-PTPBro1-CC (1-714) (Homo sapiens, UniProt Q9H3S7); assay: Biosensor (SPR) binding of peptides to HD-PTPBro1-CC; settings: 10 mM HEPES pH 7.4, 150 mM NaCl, 0.05% Tween 20, 25°C; for Binding to HD-PTPBro1-CC (sensogram): compared with wild-type endofin peptide, result in words
T2 construct: HD-PTPBro1-CC (1-714) and AlixBro1 (1-359) were cloned in a pET28a vector; made in house; host or cells: E. coli BL21 (DE3)
T2 sequence (Q9H3S7 1-714): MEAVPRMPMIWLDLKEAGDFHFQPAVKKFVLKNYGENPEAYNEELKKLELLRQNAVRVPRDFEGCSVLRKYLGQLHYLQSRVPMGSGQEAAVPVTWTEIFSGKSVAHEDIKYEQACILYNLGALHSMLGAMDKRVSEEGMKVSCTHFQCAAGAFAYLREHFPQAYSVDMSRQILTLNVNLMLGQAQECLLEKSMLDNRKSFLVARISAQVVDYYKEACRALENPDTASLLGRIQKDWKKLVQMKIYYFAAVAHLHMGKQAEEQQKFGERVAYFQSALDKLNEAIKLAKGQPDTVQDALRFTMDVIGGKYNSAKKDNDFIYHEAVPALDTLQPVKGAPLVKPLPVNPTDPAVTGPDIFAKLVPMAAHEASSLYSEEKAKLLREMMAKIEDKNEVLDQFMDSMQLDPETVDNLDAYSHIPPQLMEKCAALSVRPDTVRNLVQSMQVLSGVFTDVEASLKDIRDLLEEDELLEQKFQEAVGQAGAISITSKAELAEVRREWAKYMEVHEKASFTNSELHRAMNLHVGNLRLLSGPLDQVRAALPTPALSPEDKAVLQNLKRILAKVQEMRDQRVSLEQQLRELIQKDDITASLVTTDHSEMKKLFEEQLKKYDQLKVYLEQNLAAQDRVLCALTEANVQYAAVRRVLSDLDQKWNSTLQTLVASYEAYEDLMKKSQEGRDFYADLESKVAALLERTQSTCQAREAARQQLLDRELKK
Experimental: as §1, §2

[2] = biological target: T3, His6-HD-PTP_(Bro1-CC) T145K, bacterially expressed (human, UniProt Q9H3S7 1-714, T145K); assay: co-IP; bacterially expressed GST-CHMP4B, full length or truncated (50 μg/ml), and His6-HD-PTP Bro1-CC (5 μg) in 200 μl IP2 buffer with 250 mM NaCl, 2 h at 4°C; immunoprecipitation with anti-His; settings: both partners purified
T3 construct: HD-PTP/PTPN23, residues 1-714 with T145K; source: E. coli, bacterially expressed, purified; not shown: His6, N-terminal, kept
T3 sequence (looked up): T2 sequence (Q9H3S7 1-714) with T145K

[3] = biological target: T4, His6-HD-PTP_(Bro1-CC) (1-714), bacterially expressed (human, UniProt Q9H3S7 1-714); assay: co-IP; competition: GST-CHMP4B and His6-HD-PTP Bro1-CC as in the CHMP4B binding experiments, endofin 22-mer peptide (WT or L15P) added at 20 μM; immunoprecipitation with anti-His; settings: both partners purified
T4 construct: HD-PTP/PTPN23, Bro1 and coiled-coil domains, residues 1-714; also called His-HD-PTP; source: E. coli BL21 (DE3), purified (Nickel-beads, MonoQ, Superdex 200); not shown: His6, N-terminal, kept
T4 sequence (looked up): T2 sequence (Q9H3S7 1-714)

[4] = biological target: T5, His6-HD-PTP_(Bro1) (1-361) (human, UniProt Q9H3S7 1-361); assay: SPR; ProteOn XPR36; His6-tagged proteins immobilised on a HTE chip (5000-8000 RU); synthetic peptides as analytes, five concentrations; 10 mM HEPES pH 7.4, 150 mM NaCl, 0.05% Tween 20; 25°C; equilibrium binding fit; settings: both partners purified
T5 construct: HD-PTP/PTPN23, Bro1 domain, residues 1-361; Immobilised by its His6 tag on the HTE chip; also called HD-PTP Bro1 domain; source: E. coli BL21 (DE3), purified (Nickel-beads, MonoQ, Superdex 200); not shown: His6, N-terminal, kept
T5 sequence (looked up): T1 sequence (Q9H3S7 1-361)

[5] = biological target: T4, His6-HD-PTP_(Bro1-CC) (1-714), …; assay: as above; settings: both partners purified
Endofin = biological target: T6, Endofin (Homo sapiens (Human), UniProt Q7Z3T8); assay: SPR equilibrium, peptide analyte
T6 chain: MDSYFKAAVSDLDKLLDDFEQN

CHMP4C = biological target: T7, CHMP4C (Homo sapiens (Human), UniProt Q96CF2); assay: SPR equilibrium, peptide analyte
T7 chain: QRAEEEDDDIKQLAAWAT

CHMP4B = biological target: T8, CHMP4B (Homo sapiens (Human), UniProt Q9H444); assay: SPR equilibrium, peptide analyte
T8 chain: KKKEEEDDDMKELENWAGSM

CHMP4A = biological target: T9, CHMP4A (Homo sapiens (Human), UniProt Q9BY43); assay: SPR equilibrium, peptide analyte
T9 chain: PKVDEDEEALKQLAEWVS

[6] = listed as endofin L15 to proline
[7] = listed as endofin peptide containing the L15P mutation

B1: GST-CHMP4B (1-224), bacterially expressed (natural protein, human, UniProt Q9H444 1-224, looked up)
chain: MSVFGKLFGAGGGKAGKGGPTPQEAIQRLRDTEEMLSKKQEFLEKKIEQELTAAKKHGTKNKRAALQALKRKKRYEKQLAQIDGTLSTIEFQREALENANTNTEVLKNMGYAAKAMKAAHDNMDIDKVDELMQDIADQQELAEEISTAISKPVGFGEEFDEDELMAELEELEQEELDKNLLEISGPETVPLPNVPSIALPSKPAKKKEEEDDDMKELENWAGSM
notes: CHMP4B, residues 1-224, full length; In pGEX-4T1; also called CHMP4B-FL; full length GST-CHMP4B; source: E. coli C41 (DE3), purified (GSTrap HP)
binding result [2]: binds
binding result [3]: binds

B3: endofin 22-mer peptide (first 22 residues of endofin) (peptide, UniProt Q7Z3T8 1-22, looked up)
peptide: MDSYFKAAVSDLDKLLDDFEQN
notes: human endofin, first 22 residues; begins 1-MDSYF-5; also called endofin peptide; endofin_(1-22) (WT); source: synthetic peptide (Generon Ltd, UK)
Kd [5]: 2.7 µM
Kd [4]: 3.1 µM

Molecule: KKKEEEDDDMKELENWAGSM [CHMP4B C-terminal peptide]
Kd [4]: 85 µM

B4: ALIX_Bro1 (protein)
chain: MATFISVQLKKTSEVDLAKPLVKFIQQTYPSGGEEQAQYCRAAEELSKLRRAAVGRPLDKHEGALETLLRYYDQICSIEPKFPFSENQICLTFTWKDAFDKGSLFGGSVKLALASLGYEKSCVLFNCAALASQIAAEQNLDNDEGLKIAAKHYQFASGAFLHIKETVLSALSREPTVDISPDTVGTLSLIMLAQAQEVFFLKATRDKMKDAIIAKLANQAADYFGDAFKQCQYKDTLPKEVFPVLAAKHCIMQANAEYHQSILAKQQKKFGEEIARLQHAAELIKTVASRYDEYVNVKDFSDKINRALAAAKKDNDFIYHDRVPDLKDLDPIGKATLVKSTPVNVPISQKFTDLFEKMV
Kd (Endofin): > 12.5 µM

B6: HDPTP_Bro1 (protein)
chain: T1 sequence (Q9H3S7 1-361)
Kd (CHMP4C): 88 µM
Kd (CHMP4B): 85 µM
Kd (CHMP4A): 132 µM

Molecule: PKVDEDEEALKQLAEWVS [CHMP4A C-terminal peptide]
Kd [4]: 132 µM

Second part, led by results:

Binding to HD-PTPBro1 (sensogram) [1]: poor binding
Kd ([1]; poor binding, read-out: Binding (affinity bound) to HD-PTPBro1): > 1500 µM
Molecule: KAAVSDLDKLLDDFEQN
Binding to HD-PTPBro1-CC (sensogram) (HD-PTPBro1-CC (1-714)): poor binding
Kd (HD-PTPBro1-CC (1-714); poor binding, read-out: Binding (affinity bound) to HD-PTPBro1-CC): > 1500 µM

Binding to HD-PTPBro1 (sensogram) [1, 6]: abolishes binding
Binding to HD-PTPBro1 (sensogram) [1, 7]: did not bind
Molecule: endofin1–22(L15P): endofin 22-mer peptide containing the L15P mutation (MDSYFKAAVSDLDKPLDDFEQN)
Binding to HD-PTPBro1-CC (sensogram) (HD-PTPBro1-CC (1-714); [6]): abolishes binding
Binding to HD-PTPBro1-CC (sensogram) (HD-PTPBro1-CC (1-714); [7]): did not bind

Kd [4]: 11.3 µM
B2: SARA 22-mer peptide (N-terminal 22 residues of SARA) (peptide, UniProt O95405 1-22, looked up)
peptide: MENYFQAEAYNLDKVLDEFEQN
notes: human SARA, N-terminal 22 residues; also called SARA peptide; equivalent region of SARA; source: synthetic peptide (Generon Ltd, UK)

Kd [5]: > 1500 µM
Kd [4]: > 1500 µM
B5: shorter endofin peptide lacking 1-MDSYF-5 (peptide)
chain: KAAVSDLDKLLDDFEQN
modifications: C-terminal limit not given; taken as residue 22, the end of the 22-mer endofin peptide

Kd [4]: 89 µM and 88 µM
Molecule: QRAEEEDDDIKQLAAWAT [CHMP4C C-terminal peptide]

Reference: paper PMC5501724, “Structural Basis for Specific Interaction of TGFβ Signaling Regulators SARA/Endofin with HD-PTP” (Structure(London, England:1993), 2017)
